The record followed here is publication PMC8792056 (2022).

B1: DNAJB14-FL-FLAG [human] / DNAJB12-FL-mOrange [human] (parent complex)
chain 1: MEGNRDEAEKCVEIAREALNAGNREKAQRFLQKAEKLYPLPSARALLEIIMKNGSTAGNSPHCRKPSGSGDQSKPNCTKDSTSGSGEGGKGYTKDQVDGVLSINKCKNYYEVLGVTKDAGDEDLKKAYRKLALKFHPDKNHAPGATDAFKKIGNAYAVLSNPEKRKQYDLTGNEEQACNHQNNGRFNFHRGCEADITPEDLFNIFFGGGFPSGSVHSFSNGRAGYSQQHQHRHSGHEREEERGDGGFSVFIQLMPIIVLILVSLLSQLMVSNPPYSLYPRSGTGQTIKMQTENLGVVYYVNKDFKNEYKGMLLQKVEKSVEEDYVTNIRNNCWKERQQKTDMQYAAKVYRDDRLRRKADALSMDNCKELERLTSLYKGG
chain 2: MESNKDEAERCISIALKAIQSNQPDRALRFLEKAQRLYPTPRVRALIESLNQKPQTAGDQPPPTDTTHATHRKAGGTDAPSANGEAGGESTKGYTAEQVAAVKRVKQCKDYYEILGVSRGASDEDLKKAYRRLALKFHPDKNHAPGATEAFKAIGTAYAVLSNPEKRKQYDQFGDDKSQAARHGHGHGDFHRGFEADISPEDLFNMFFGGGFPSSNVHVYSNGRMRYTYQQRQDRRDNQGDGGLGVFVQLMPILILILVSALSQLMVSSPPYSLSPRPSVGHIHRRVTDHLGVVYYVGDTFSEEYTGSSLKTVERNVEDDYIANLRNNCWKEKQQKEGLLYRARYFGDTDMYHRAQKMGTPSCSRLSEVQASLHG

Variants of B1 are the subject of the test. Description: co-IP (IP: FLAG, WB: mOrange), densitometry with Fiji; HEK293T cells; n = 3 biologically independent samples; parent: 2.7; read off a plot.
Consider chain 1 H136Q, for which the response was ~7.2 [ORANGE]/[FLAG].
